Here are results for 17 substances from US5472872.

Data set [1] has as its target T1, R.CviJI restriction endonuclease (Chlorella virus IL-3A) (UniProt P52283).
T1 sequence: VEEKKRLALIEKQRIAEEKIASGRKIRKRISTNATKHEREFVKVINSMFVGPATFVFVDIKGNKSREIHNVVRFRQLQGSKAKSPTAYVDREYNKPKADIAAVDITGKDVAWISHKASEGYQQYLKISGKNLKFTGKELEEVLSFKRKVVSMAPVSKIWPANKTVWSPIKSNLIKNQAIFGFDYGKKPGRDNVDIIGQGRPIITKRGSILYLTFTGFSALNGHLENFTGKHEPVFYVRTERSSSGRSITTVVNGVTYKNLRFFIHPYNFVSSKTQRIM
Kind of data set: cleavage_in_vitro.

In data set [2] the test system is M.CviJI methyltransferase (Chlorella virus IL-3A). Kind of data set: cell_activity. Conditions: p710 in E. coli; SacI 90%, HindIII 25%; improved-translation plasmids appeared 100% resistant.
[3] abbreviates: CviJI*, 5 uncleaved, CviJI** 1 of 76 (Table 5).
Setting [4] is: CviJI*, 3 uncleaved, CviJI** 0 of 76 (Table 5).

In turn, “TGCT (double strand) [TGCT site in pUC19 (relaxed R1 PyGCPy)]” showed an activity (cleaved junctions of 200) in data set [1] (setting [3]) of 10.

In data set [1] (CviJI*, 11 uncleaved, CviJI** 0 of 76 (Table 5)), “AGCG (double strand) [AGCG site in pUC19 (relaxed R2 PuGCPu)]” gave an activity (cleaved junctions of 200) of 12.

The substance “CGCC (double strand) [CGCC site in pUC19 (relaxed R1 PyGCPy)]” displayed an activity (cleaved junctions of 200) in data set [1] (CviJI*, 4 uncleaved, CviJI** 0 of 76 (Table 5)) of 11.

In data set [1] (CviJI*, 1 uncleaved, CviJI** 16 of 76 (Table 5)), “GGCC (double strand) [GGCC site in pUC19 (normal PuGCPy)]” yielded an activity (cleaved junctions of 200) of 24.

In data set [1] (CviJI*, 7 uncleaved, CviJI** 2 of 76 (Table 5)), “CGCT (double strand) [CGCT site in pUC19 (relaxed R1 PyGCPy)]” came in with an activity (cleaved junctions of 200) of 17.

Consider “AGCT (double strand) [AGCT site in pUC19 (normal PuGCPy)]”, for which, in data set [1] (CviJI*, 0 uncleaved, CviJI** 25 of 76 (Table 5)), the activity (cleaved junctions of 200) came to 35.

In turn, “CGCA (double strand) [CGCA site in pUC19 (R3 PyGCPu)]” displayed an activity (cleaved junctions of 200) in data set [1] (CviJI*, 12 uncleaved, CviJI** 0 of 76 (Table 5)) of 0.

Consider “AGCA (double strand) [AGCA site in pUC19 (relaxed R2 PuGCPu)]”, for which, in data set [1] (setting [3]), the activity (cleaved junctions of 200) came out at 13.

“CGCG (double strand) [CGCG site in pUC19 (R3 PyGCPu)]”: the activity (cleaved junctions of 200) in data set [1] (CviJI*, 27 uncleaved, CviJI** 0 of 76 (Table 5)) is 0.

“AGCC (double strand) [AGCC site in pUC19 (normal PuGCPy)]” showed an activity (cleaved junctions of 200) in data set [1] (CviJI* (Mg, ATP, DTT), 1 uncleaved, CviJI** 13 of 76 (Table 5)) of 23.

In data set [1] (CviJI*, 8 uncleaved, CviJI** 4 of 76 (Table 5)), “GGCG (double strand) [GGCG site in pUC19 (relaxed R2 PuGCPu)]” registered an activity (cleaved junctions of 200) of 18.

In turn, “TGCA (double strand) [TGCA site in pUC19 (R3 PyGCPu)]” registered an activity (cleaved junctions of 200) in data set [1] (CviJI*, 19 uncleaved, CviJI** 0 of 76 (Table 5)) of 0.

For the substance plasmid p710/pBMC5 (G/A)GC(T/C/G) sites, the activity (% resistance to HaeIII) in data set [2] was determined as 90.

Substance “TGCG (double strand) [TGCG site in pUC19 (R3 PyGCPu)]” had an activity (cleaved junctions of 200) in data set [1] (setting [4]) of 0.

Regarding “TGCC (double strand) [TGCC site in pUC19 (relaxed R1 PyGCPy)]”, the activity (cleaved junctions of 200) in data set [1] (CviJI*, 10 uncleaved, printed TOCC in Table 2, CviJI** 2 of 76 (Table 5)) is 13.

Substance “GGCA (double strand) [GGCA site in pUC19 (relaxed R2 PuGCPu)]” returned an activity (cleaved junctions of 200) in data set [1] (setting [4]) of 11.

In data set [1] (CviJI*, 0 uncleaved, CviJI** 12 of 76 (Table 5)), “GGCT (double strand) [GGCT site in pUC19 (normal PuGCPy)]” gave an activity (cleaved junctions of 200) of 13.
